Experimental data: the supplement of paper PMC10065799, “High-throughput profiling of sequence recognition by tyrosine kinases and SH2 domains using bacterial peptide display” (eLife, 2023)

What was measured:
c-Src SH2 = experiment: SH2 binding enrichment of the phosphorylated peptide, bacterial display (enrichment ratio); higher = better substrate or ligand; peptides without Tyr show the background
Grb2 SH2 = Grb2 SH2 (UniProt P62993); experiment: as above
SHP2-C SH2 = experiment: as above
Jak2 = Jak2 (UniProt O60674); experiment: phosphorylation enrichment, bacterial display (enrichment ratio); higher = better substrate or ligand; peptides without Tyr show the background
Chain of Jak2 (O60674 whole entry, looked up): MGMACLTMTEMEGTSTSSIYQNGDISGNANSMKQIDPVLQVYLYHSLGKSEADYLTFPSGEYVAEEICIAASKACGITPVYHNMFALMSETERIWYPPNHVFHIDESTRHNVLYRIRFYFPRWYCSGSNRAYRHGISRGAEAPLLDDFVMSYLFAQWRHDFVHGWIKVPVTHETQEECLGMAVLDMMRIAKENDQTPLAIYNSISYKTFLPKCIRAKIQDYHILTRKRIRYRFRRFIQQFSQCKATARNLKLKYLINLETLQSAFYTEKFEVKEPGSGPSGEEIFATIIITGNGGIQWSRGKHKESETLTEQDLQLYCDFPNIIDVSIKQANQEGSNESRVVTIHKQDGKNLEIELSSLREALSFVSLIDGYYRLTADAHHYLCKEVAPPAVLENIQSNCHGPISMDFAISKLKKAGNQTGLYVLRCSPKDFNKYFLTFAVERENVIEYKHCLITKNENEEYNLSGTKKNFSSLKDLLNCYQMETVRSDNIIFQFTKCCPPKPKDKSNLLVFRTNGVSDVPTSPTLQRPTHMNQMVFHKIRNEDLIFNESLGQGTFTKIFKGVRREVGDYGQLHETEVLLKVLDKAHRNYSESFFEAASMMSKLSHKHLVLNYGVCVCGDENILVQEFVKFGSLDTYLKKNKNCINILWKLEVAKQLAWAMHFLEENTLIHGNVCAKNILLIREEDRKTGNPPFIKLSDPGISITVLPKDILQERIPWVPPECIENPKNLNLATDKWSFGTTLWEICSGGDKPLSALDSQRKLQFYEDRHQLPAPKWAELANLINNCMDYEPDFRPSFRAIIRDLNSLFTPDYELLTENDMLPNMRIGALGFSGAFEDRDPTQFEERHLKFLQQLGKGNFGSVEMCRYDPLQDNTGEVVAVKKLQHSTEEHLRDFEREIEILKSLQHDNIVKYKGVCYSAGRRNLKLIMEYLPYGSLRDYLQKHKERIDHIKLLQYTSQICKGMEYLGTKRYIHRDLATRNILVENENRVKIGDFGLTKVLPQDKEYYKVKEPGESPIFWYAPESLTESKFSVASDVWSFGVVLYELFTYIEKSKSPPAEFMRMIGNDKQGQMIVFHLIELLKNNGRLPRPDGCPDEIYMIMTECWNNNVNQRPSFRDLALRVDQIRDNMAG

Fer (mouse) = experiment: as above
Hck = Hck (UniProt P08631); experiment: as above
Chain of Hck (P08631 whole entry, looked up): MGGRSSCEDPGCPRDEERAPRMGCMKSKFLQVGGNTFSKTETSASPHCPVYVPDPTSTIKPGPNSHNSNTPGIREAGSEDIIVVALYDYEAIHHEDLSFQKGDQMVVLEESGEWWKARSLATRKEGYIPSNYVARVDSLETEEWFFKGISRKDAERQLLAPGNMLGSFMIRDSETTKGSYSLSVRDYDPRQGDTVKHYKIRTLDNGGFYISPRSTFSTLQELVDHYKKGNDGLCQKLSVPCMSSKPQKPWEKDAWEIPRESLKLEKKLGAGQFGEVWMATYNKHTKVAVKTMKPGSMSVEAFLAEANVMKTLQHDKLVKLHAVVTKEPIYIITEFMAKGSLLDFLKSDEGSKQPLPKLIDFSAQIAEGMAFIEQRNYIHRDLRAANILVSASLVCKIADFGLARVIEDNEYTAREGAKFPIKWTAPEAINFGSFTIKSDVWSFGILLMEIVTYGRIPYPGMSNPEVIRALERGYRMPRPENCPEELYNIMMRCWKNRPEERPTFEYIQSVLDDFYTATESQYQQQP

FGFR1 = FGFR1 (UniProt P11362); experiment: as above
Fyn = Fyn (UniProt P06241); experiment: as above
Chain of Fyn (P06241 whole entry, looked up): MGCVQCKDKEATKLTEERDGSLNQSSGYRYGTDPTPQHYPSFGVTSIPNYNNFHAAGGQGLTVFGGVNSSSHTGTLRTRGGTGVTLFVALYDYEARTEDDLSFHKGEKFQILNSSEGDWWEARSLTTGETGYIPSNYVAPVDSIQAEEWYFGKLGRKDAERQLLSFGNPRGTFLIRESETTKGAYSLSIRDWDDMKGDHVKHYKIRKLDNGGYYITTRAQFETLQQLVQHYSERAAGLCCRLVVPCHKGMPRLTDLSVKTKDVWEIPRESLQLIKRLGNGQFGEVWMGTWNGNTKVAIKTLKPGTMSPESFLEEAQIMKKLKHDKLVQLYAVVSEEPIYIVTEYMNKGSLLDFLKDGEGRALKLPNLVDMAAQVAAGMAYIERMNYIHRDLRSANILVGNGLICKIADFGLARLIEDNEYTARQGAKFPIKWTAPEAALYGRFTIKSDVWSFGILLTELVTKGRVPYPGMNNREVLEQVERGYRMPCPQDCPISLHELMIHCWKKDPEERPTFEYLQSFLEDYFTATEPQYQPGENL

c-Abl (mouse) = experiment: as above
FGFR3 = FGFR3 (UniProt P22607); experiment: as above
Chain of FGFR3 (P22607 whole entry, looked up): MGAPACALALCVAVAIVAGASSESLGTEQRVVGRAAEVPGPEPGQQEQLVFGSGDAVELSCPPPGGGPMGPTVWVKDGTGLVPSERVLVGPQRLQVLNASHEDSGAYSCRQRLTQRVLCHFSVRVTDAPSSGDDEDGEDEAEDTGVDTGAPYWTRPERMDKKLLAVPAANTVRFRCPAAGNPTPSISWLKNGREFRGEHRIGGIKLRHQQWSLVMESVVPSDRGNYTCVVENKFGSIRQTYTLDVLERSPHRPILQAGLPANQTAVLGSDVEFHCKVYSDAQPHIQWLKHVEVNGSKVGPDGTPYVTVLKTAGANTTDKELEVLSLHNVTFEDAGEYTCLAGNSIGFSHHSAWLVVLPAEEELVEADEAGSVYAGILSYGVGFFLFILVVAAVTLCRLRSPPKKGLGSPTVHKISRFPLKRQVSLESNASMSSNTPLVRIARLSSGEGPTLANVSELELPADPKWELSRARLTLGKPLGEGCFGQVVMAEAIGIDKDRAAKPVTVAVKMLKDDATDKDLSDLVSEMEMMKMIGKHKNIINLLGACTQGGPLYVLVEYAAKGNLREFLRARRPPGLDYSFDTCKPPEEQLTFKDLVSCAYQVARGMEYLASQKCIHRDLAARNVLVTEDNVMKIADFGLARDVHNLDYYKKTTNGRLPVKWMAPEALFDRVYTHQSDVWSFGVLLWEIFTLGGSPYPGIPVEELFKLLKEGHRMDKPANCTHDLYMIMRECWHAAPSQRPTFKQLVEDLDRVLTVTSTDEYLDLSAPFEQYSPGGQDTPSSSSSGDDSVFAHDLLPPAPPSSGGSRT

c-Src = experiment: as above
AncSZ = experiment: as above
MERTK = MERTK (UniProt Q12866); experiment: as above
Fes = Fes (UniProt P07332); experiment: as above
EPHB2 = EPHB2 (UniProt P29323); experiment: as above
Chain of EPHB2 (P29323 whole entry, looked up): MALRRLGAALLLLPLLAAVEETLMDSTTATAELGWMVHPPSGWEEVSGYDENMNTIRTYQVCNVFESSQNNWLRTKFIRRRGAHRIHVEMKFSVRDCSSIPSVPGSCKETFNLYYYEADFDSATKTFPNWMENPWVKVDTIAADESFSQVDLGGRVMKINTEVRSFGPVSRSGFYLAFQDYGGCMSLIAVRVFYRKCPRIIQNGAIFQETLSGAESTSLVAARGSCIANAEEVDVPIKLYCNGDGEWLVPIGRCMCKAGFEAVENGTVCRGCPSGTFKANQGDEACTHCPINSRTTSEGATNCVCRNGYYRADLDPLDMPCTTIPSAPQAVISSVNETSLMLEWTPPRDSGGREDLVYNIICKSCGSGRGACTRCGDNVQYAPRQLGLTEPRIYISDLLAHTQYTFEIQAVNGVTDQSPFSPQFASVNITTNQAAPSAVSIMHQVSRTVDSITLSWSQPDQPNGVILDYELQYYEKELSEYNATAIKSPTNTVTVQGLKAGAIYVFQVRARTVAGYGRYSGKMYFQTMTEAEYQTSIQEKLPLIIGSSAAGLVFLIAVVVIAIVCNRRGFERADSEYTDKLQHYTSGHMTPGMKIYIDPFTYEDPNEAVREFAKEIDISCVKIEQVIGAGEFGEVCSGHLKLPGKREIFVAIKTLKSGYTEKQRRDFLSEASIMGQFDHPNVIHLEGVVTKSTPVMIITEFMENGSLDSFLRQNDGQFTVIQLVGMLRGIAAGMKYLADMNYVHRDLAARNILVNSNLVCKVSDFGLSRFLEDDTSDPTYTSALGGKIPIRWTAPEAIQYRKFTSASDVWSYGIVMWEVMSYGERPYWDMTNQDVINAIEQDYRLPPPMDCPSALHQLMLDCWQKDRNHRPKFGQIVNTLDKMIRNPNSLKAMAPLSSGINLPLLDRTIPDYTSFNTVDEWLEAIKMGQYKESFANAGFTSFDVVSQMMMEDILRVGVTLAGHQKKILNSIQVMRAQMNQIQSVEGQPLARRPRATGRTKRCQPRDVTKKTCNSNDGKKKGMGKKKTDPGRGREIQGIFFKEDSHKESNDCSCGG

EPHB1 = EPHB1 (UniProt P54762); experiment: as above
Chain of EPHB1 (P54762 whole entry, looked up, the tested form may be a part): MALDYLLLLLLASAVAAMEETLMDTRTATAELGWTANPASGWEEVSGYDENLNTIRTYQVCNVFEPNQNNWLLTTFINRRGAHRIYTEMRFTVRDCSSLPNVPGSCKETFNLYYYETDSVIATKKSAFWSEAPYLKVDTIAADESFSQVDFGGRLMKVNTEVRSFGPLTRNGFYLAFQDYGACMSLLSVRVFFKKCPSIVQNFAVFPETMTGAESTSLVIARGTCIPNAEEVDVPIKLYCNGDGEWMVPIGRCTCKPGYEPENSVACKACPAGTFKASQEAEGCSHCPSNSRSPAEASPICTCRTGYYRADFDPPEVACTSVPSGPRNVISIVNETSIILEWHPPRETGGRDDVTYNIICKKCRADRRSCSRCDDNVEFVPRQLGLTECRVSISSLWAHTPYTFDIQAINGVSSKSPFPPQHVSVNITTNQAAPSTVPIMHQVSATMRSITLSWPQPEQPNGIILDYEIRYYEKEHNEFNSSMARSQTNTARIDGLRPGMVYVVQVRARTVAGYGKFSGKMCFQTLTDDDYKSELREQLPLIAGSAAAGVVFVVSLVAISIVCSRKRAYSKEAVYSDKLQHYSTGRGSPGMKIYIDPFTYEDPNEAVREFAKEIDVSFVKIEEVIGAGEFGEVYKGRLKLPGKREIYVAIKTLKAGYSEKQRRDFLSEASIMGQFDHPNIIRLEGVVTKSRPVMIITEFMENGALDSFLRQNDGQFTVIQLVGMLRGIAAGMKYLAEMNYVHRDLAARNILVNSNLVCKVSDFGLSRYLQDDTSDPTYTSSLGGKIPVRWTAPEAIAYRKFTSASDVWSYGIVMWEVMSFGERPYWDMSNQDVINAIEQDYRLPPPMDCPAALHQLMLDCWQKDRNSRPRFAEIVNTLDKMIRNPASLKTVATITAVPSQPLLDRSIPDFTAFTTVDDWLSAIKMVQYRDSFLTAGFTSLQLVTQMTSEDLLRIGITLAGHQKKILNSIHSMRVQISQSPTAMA
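For SH2 binding enrichment of the phosphorylated peptide, bacterial display in this document: peptide library displayed on the E. coli surface as eCPX fusions, selected cells deep-sequenced, score is each peptide's frequency after selection divided by its frequency in the input.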
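For phosphorylation enrichment, bacterial display in this document: 11-residue human phosphosite peptides and single-mutation variants displayed on the E. coli surface, counted by deep sequencing, each peptide's frequency after selection divided by its frequency in the unselected input library; frequency after pTyr selection over input frequency; kinase dosed for 20-30% of maximal phosphorylation in three min.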

SH2 binding enrichment (c-Src SH2)	SH2 binding enrichment (Grb2 SH2)	SH2 binding enrichment (SHP2-C SH2)	Sequence	phosphorylation enrichment (Jak2)	phosphorylation enrichment (Fer (mouse))	phosphorylation enrichment (Hck)	phosphorylation enrichment (FGFR1)	phosphorylation enrichment (Fyn)	phosphorylation enrichment (c-Abl (mouse))	phosphorylation enrichment (FGFR3)	phosphorylation enrichment (c-Src)	phosphorylation enrichment (AncSZ)	phosphorylation enrichment (MERTK)	phosphorylation enrichment (Fes)	phosphorylation enrichment (EPHB2)	phosphorylation enrichment (EPHB1)
0.444	0.718	0.861	SVGVPYEPPEV [TP53_Y220_V217G]	1.09	0.585	0.577	0.523	0.545	0.881	0.748	0.509	1.16	0.485	1.29	0.57	0.534
0.562	0.898	0.675	ACCLLYCGDVV [TUBA4A_Y319_R320C]	1.09	3.7	1.71	1.13	1.1	1.29	1.23	4.33	1.54	4.54	1.3	7.84	9.94
0.929	0.837	0.595	MSRNLYSGDCF [DDR2_Y736_Y740C_YF]	0.903	0.911	2.12	0.793	1.71	0.739	0.968	1.93	1.01	5.87	1	1.97	2.02
0.518	0.895	0.667	FLNSIYKCRDE [ROS1_Y2227_S2229C]	1.24	0.477	0.572	0.579	0.488	0.78	0.662	0.774	0.953	0.311	0.909	0.514	0.463
0.515	1.03	0.799	KGEDFYCVTFH [FHL1_Y149_C153Y_YF]	1.21	1.54	1.19	0.952	1.78	0.895	1.12	1.47	1.48	2.82	1.48	0.891	0.825
0.54	0.96	0.571	LLSISYVGCSL [ADGRD1_Y571_S567L]	1.77	1.01	0.824	1.1	0.98	1.45	1.43	0.69	1.48	0.761	2.03	0.823	0.888
0.823	0.744	0.64	LTTEAYEWEPR [ELMOD3_Y61]	1.16	1.07	0.943	1.08	1.1	0.831	1.06	1.31	1.69	0.724	1.89	1.24	1.11
0.966	1.29	1.45	PLLLSYYLIKW [NUP160_Y773]	4.49	0.633	0.628	4.29	0.358	1.2	3.73	0.854	1.33	1.68	1.83	0.947	1.14
0.573	0.716	0.666	GVPLGYPIKAP [ELN_Y206]	0.534	0.45	0.388	0.462	0.384	0.485	0.399	0.427	0.563	0.419	0.573	0.388	0.323
0.426	0.847	0.739	ENRKFYKDLKE [PURA_Y156_M157K_YF]	0.536	0.387	0.473	0.401	0.418	0.431	0.493	0.422	0.532	0.589	0.699	0.552	0.312
0.507	0.73	0.535	IGEGTYGVVYK [CDK2_Y15]	0.756	1.73	7.9	0.551	10.6	0.63	0.67	5.96	0.907	2.01	0.896	7.28	2.67
0.472	0.887	0.654	CSSGGYEPRGR [FUS_Y239_R234C]	0.594	0.475	0.436	0.432	0.411	0.528	0.547	0.353	0.801	0.396	0.861	0.439	0.411
1.4	1.88	0.962	RHFVFYFSFLL [PTEN_Y177_R173H_YF]	0.607	0.18	0.391	0.496	0.538	0.703	0.553	0.653	1.26	0.357	0.867	1.44	0.547
0.5	0.758	0.559	IIQRAYRGHLL [SCN1A_Y1926_R1928G]	0.555	0.387	0.428	0.447	0.429	0.437	0.628	0.432	0.483	0.47	0.671	0.327	0.38
